{
  "source": "patent US20160041176A1",
  "about": "(NATIONAL UNIVERSITY CORPORATION NAGOYA UNIVERSITY, published 2016)",
  "key": {"[1]": {"target": "F-actin (filamentous actin)", "assay": "actin cosedimentation, 1 µM GST-CT2 with 0-2.5 µM F-actin, Scatchard analysis"}, "[2]": {"test_system": "T1, Girdin CT-V5 SA mutant (serine 1416 replaced with alanine)", "T1 sequence": "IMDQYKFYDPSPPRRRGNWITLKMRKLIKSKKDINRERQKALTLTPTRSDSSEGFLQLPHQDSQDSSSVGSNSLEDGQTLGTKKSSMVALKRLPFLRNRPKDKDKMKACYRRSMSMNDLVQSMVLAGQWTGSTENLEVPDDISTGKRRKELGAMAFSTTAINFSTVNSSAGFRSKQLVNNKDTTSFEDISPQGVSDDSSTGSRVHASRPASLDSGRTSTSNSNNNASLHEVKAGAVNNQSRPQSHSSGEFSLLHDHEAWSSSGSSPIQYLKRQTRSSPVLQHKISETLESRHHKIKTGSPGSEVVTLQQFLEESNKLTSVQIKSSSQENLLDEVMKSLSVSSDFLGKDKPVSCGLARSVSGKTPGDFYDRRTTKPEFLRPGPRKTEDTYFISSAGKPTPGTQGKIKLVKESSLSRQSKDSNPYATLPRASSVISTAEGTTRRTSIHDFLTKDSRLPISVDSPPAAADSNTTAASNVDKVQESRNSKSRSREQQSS"}, "[3]": {"test_system": "T2, coiled-coil domain of Girdin tagged with V5", "T2 sequence": "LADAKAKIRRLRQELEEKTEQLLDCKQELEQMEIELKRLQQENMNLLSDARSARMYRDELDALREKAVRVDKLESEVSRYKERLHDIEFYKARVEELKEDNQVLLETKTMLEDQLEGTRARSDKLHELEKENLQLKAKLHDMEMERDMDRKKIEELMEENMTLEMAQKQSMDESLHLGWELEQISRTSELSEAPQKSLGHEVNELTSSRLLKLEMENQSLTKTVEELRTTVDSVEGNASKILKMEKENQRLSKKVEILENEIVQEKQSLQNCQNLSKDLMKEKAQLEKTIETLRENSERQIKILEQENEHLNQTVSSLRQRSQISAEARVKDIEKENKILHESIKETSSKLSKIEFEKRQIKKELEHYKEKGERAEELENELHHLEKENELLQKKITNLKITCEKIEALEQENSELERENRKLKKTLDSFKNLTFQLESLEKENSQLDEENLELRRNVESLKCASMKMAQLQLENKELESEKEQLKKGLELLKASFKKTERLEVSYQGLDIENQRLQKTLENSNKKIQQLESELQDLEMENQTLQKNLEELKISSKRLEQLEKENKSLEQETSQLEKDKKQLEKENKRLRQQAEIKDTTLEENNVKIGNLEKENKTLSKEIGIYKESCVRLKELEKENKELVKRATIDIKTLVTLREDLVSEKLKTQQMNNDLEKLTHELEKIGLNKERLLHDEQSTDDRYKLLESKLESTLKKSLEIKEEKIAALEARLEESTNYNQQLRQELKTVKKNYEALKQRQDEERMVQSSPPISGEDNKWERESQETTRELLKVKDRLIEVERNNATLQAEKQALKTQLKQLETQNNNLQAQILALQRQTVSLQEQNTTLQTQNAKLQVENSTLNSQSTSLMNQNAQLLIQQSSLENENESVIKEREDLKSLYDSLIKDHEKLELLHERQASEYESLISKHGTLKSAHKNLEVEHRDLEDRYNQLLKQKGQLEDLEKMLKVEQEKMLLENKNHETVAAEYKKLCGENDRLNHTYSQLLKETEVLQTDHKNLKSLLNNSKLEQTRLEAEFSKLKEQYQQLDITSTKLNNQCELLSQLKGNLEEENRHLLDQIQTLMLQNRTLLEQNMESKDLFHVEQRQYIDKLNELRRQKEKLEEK"}, "[4]": {"test_system": "T3, Girdin CT-V5 wild type (WT)", "T3 sequence": "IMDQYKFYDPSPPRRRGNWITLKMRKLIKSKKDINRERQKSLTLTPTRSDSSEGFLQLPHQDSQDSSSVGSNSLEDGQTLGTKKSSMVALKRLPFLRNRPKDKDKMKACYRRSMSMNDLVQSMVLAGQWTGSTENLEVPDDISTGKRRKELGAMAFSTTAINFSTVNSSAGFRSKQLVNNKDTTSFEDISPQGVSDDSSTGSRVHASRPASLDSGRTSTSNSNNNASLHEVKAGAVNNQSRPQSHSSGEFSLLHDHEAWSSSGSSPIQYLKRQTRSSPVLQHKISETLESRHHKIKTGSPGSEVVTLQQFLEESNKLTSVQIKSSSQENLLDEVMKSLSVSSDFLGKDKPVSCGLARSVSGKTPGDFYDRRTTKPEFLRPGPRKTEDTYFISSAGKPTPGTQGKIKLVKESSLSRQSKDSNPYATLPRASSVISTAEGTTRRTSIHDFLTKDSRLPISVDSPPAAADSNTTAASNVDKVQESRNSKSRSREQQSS"}, "[5]": {"test_system": "T4, V5 epitope-tagged NT domain of Girdin (NT-V5)", "T4 sequence": "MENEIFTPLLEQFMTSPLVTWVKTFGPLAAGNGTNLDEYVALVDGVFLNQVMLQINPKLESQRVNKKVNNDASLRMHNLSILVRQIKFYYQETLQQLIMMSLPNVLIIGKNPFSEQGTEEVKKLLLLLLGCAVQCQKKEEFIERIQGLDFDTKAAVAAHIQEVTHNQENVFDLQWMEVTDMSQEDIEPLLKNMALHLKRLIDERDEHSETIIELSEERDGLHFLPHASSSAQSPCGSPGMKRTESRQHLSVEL"}, "[6]": {"test_system": "T5, GST-CT (GST-fused CT domain of Girdin)", "T5 sequence": "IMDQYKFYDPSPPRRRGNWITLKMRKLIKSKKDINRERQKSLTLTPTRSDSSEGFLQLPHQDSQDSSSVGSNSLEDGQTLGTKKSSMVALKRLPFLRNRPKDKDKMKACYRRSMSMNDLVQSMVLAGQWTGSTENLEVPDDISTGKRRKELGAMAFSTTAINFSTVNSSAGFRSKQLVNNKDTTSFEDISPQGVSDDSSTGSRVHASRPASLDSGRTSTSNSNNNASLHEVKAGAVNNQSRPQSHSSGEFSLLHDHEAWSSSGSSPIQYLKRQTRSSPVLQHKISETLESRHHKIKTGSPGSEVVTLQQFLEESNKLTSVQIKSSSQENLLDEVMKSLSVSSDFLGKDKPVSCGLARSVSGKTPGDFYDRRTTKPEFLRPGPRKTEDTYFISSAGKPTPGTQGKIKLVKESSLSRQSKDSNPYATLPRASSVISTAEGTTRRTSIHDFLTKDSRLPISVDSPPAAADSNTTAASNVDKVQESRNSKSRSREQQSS"}, "[7]": {"target": "the molecule itself", "assay": "expression in COS7 cells, coimmunoprecipitation (data not shown)"}},
  "data": [
    {"molecule": "glutathione S-transferase (GST)-fused CT2 of Girdin (GST-CT2) (from UniProt Q3V6T2 1624-1871)", "values": [
      {"measurement": "Kd", "setting": "[1]", "result": 1030, "unit": "nM"}
    ]},
    {"molecule": "recombinant active Akt (Upstate)", "values": [
      {"measurement": "in vitro kinase assay (phosphorylation, autoradiography)", "setting": "[2]", "result": "but not its Ser-1416 substituted with Ala mutant (SA), was phosphorylated by active Akt"},
      {"measurement": "in vitro kinase assay (phosphorylation, autoradiography)", "setting": "[3]", "result": "neither the NT nor the coiled-coil domain of Girdin was phosphorylated by Akt in vitro"},
      {"measurement": "in vitro kinase assay (phosphorylation, autoradiography)", "setting": "[4]", "result": "Girdin CT wild type (WT) ... was phosphorylated by active Akt"},
      {"measurement": "in vitro kinase assay (phosphorylation, autoradiography)", "setting": "[5]", "result": "neither the NT nor the coiled-coil domain of Girdin was phosphorylated by Akt in vitro"},
      {"measurement": "in vitro kinase assay (phosphorylation detected by anti-P-Girdin antibody)", "setting": "[6]", "result": "Purified GST-CT was effectively phosphorylated by Akt in vitro"}
    ]},
    {"molecule": "CT domain of Girdin (expressed in cells, oligomerisation test) (other) IMDQYKFYDPSPPRRRGNWITLKMRKLIKSKKDINRERQKSLTLTPTRSDSSEGFLQLPHQDSQDSSSVGSNSLEDGQTLGTKKSSMVALKRLPFLRNRPKDKDKMKACYRRSMSMNDLVQSMVLAGQWTGSTENLEVPDDISTGKRRKELGAMAFSTTAINFSTVNSSAGFRSKQLVNNKDTTSFEDISPQGVSDDSSTGSRVHASRPASLDSGRTSTSNSNNNASLHEVKAGAVNNQSRPQSHSSGEFSLLHDHEAWSSSGSSPIQYLKRQTRSSPVLQHKISETLESRHHKIKTGSPGSEVVTLQQFLEESNKLTSVQIKSSSQENLLDEVMKSLSVSSDFLGKDKPVSCGLARSVSGKTPGDFYDRRTTKPEFLRPGPRKTEDTYFISSAGKPTPGTQGKIKLVKESSLSRQSKDSNPYATLPRASSVISTAEGTTRRTSIHDFLTKDSRLPISVDSPPAAADSNTTAASNVDKVQESRNSKSRSREQQSS", "values": [
      {"measurement": "binding result", "setting": "[7]", "result": "no binding"}
    ]}
  ]
}
